Assay results published in article PMC9823104, “Targeted systematic evolution of an RNA platform neutralizing DNMT1 function and controlling DNA methylation”.

Columns and labels:
His-tagged DNMT1 [1] = biological target: T1, His-tagged DNMT1 (Homo sapiens, UniProt P26358 1-1616); experiment: ELONA; BLI: AR2G tips, protein amine-coupled, assay buffer not fully stated (PBS pre-hydration); MST: 50 nM RED-tris-NTA labelled stock in 25 mM Hepes pH 7.5, 250 mM NaCl, 0.05% Tween 20 / PBS-T mix, 25 C; EMSA: 5 mM Tris pH 7.4, 5 mM MgCl2, 1 mM DTT, 3% glycerol, 100 mM NaCl, RT; ELONA: PBS, RT; pulldown: 10 mM Tris pH 7.5, 200 nM (so in the source) NaCl, 5 mM EDTA, 0.1% Triton X-100; conditions: protein: commercial; tags: His6; label: 3' biotin; hairpin (predicted)
T1 sequence (P26358 whole entry): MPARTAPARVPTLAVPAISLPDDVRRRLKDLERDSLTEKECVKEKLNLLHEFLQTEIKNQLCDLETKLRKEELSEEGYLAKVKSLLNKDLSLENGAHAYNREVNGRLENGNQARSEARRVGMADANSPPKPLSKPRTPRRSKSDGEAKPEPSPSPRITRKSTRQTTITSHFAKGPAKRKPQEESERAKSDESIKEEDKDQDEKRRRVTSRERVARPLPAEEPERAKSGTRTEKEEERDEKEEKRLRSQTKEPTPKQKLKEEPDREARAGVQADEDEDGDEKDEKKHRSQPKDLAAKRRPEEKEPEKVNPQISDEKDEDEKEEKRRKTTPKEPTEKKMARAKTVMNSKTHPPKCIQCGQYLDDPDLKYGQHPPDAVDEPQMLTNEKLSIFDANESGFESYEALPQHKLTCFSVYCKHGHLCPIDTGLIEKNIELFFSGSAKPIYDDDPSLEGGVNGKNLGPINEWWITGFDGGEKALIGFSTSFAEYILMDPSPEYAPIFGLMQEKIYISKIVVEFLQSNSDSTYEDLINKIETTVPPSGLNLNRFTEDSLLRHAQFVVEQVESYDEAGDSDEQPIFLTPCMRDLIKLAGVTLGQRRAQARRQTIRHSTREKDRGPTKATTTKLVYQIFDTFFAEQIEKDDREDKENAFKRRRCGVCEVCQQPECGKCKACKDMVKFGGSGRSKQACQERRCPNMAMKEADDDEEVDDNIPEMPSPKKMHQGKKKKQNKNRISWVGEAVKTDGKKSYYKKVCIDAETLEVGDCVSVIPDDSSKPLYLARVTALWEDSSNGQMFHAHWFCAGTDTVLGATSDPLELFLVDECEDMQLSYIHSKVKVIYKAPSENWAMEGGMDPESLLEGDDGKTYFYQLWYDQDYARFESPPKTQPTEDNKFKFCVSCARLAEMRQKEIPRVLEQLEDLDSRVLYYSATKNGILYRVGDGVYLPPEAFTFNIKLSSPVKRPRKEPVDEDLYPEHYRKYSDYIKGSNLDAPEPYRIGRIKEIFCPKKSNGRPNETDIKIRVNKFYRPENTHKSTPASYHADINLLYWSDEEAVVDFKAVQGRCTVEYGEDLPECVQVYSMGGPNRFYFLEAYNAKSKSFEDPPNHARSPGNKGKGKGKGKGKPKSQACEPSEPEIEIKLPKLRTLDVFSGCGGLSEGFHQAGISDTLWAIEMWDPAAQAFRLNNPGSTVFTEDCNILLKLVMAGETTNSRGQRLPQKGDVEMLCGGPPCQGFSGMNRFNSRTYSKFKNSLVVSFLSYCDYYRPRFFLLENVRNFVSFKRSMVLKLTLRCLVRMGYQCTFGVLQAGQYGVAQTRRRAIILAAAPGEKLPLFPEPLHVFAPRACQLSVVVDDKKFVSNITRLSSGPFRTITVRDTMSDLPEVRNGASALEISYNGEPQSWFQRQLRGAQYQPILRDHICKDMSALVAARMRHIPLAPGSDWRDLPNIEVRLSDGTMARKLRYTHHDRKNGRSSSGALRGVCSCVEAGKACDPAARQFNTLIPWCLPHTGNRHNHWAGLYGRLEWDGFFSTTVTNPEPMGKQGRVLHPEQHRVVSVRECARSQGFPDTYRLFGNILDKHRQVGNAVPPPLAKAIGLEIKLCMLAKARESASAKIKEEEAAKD

[2] = biological target: T2, DNMT1 (purified, Active Motif) (UniProt P26358 1-1616); experiment: BLI; BLI: AR2G tips, protein amine-coupled, assay buffer not fully stated (PBS pre-hydration); MST: 50 nM RED-tris-NTA labelled stock in 25 mM Hepes pH 7.5, 250 mM NaCl, 0.05% Tween 20 / PBS-T mix, 25 C; EMSA: 5 mM Tris pH 7.4, 5 mM MgCl2, 1 mM DTT, 3% glycerol, 100 mM NaCl, RT; ELONA: PBS, RT; pulldown: 10 mM Tris pH 7.5, 200 nM (so in the source) NaCl, 5 mM EDTA, 0.1% Triton X-100; conditions: protein: commercial; for Kd: hairpin (predicted)
T2 sequence (P26358 whole entry): as above

His-tagged DNMT1 [3] = biological target: T1, His-tagged DNMT1; experiment: MST; up to 1.5 uM RNA; BLI: AR2G tips, protein amine-coupled, assay buffer not fully stated (PBS pre-hydration); MST: 50 nM RED-tris-NTA labelled stock in 25 mM Hepes pH 7.5, 250 mM NaCl, 0.05% Tween 20 / PBS-T mix, 25 C; EMSA: 5 mM Tris pH 7.4, 5 mM MgCl2, 1 mM DTT, 3% glycerol, 100 mM NaCl, RT; ELONA: PBS, RT; pulldown: 10 mM Tris pH 7.5, 200 nM (so in the source) NaCl, 5 mM EDTA, 0.1% Triton X-100; conditions: protein: commercial; tags: His6; unable to form stem-loop
His-tagged DNMT1 [4] = biological target: T1, His-tagged DNMT1; experiment: MST; BLI: AR2G tips, protein amine-coupled, assay buffer not fully stated (PBS pre-hydration); MST: 50 nM RED-tris-NTA labelled stock in 25 mM Hepes pH 7.5, 250 mM NaCl, 0.05% Tween 20 / PBS-T mix, 25 C; EMSA: 5 mM Tris pH 7.4, 5 mM MgCl2, 1 mM DTT, 3% glycerol, 100 mM NaCl, RT; ELONA: PBS, RT; pulldown: 10 mM Tris pH 7.5, 200 nM (so in the source) NaCl, 5 mM EDTA, 0.1% Triton X-100; conditions: protein: commercial; tags: His6; hairpin (predicted)
[5] = biological target: T2, DNMT1 (purified, Active Motif); experiment: BLI; no binding detected below 100 nM RNA; BLI: AR2G tips, protein amine-coupled, assay buffer not fully stated (PBS pre-hydration); MST: 50 nM RED-tris-NTA labelled stock in 25 mM Hepes pH 7.5, 250 mM NaCl, 0.05% Tween 20 / PBS-T mix, 25 C; EMSA: 5 mM Tris pH 7.4, 5 mM MgCl2, 1 mM DTT, 3% glycerol, 100 mM NaCl, RT; ELONA: PBS, RT; pulldown: 10 mM Tris pH 7.5, 200 nM (so in the source) NaCl, 5 mM EDTA, 0.1% Triton X-100; conditions: protein: commercial; hairpin (predicted)

| Binder | binding result (His-tagged DNMT1 [1]) | Kd [2] [nM] | Kd (His-tagged DNMT1 [4]) [nM] | further results |
| --- | --- | --- | --- | --- |
| AGGUAAUGGCGAGGCUUCUUAUCUG (structured_RNA, 2'-F pyrimidines (all C and U)) [Ce-10-1 sh biotin] | binds |  |  |  |
| CAGAGGACAAGGCGAGGCAACA (ssRNA, 2'-F pyrimidines (all C and U)) [mutR5] |  |  |  | binding result ([2]; unable to form stem-loop): no binding; binding result (His-tagged DNMT1 [3]): no binding |
| CUGAGGCCUAACGAAGGCUUCU (structured_RNA, 2'-F pyrimidines (all C and U)) [Ce-49 sh] |  | 79.2 ± 23.7 | 119 ± 34 |  |
| UGGGCUGAGCUCAUGGCGAGGCUUC (structured_RNA, 2'-F pyrimidines (all C and U)) [Ce-9 sh biotin] | binds |  |  |  |
| UUACUGGGCUGAGGUAAUGGCGAGG (structured_RNA, 2'-F pyrimidines (all C and U)) [Ce-10-2 sh] |  | 66.4 ± 24 | 106 ± 42 |  |
| CUGAGGCCUUGGCGAGGCUUCU (structured_RNA, 2'-F pyrimidines (all C and U)) [DNMT1 bait (2'F-Py R5)] |  |  | 440 ± 140 | Kd [5]: 600 ± 100 nM |
